{"source": "paper PMC9648850", "tested_on": "RtrC (Caulobacter crescentus (NA1000?))", "assay": "EMSA", "settings": "200 mM NaCl, 50 ng/ul poly(dI-dC), EMSA: 32.5 mM Tris pH 8 (at 4 C), 200 mM NaCl (chases: 30 mM Tris, 150 mM NaCl), 1 mM EDTA, 30% glycerol, 1 mM DTT, 10 ug/ml BSA, 20 C …", "data": [{"substance": "hfiA promoter probe, labeled", "values": [{"measurement": "Kd", "value": 45, "unit": "nM"}]}]}
